Test results taken from publication PMC9482650, “Quantitative fragmentomics allow affinity mapping of interactomes” (Nature Communications, 2022).
Residue numbers refer to the chain shown, from its start.

What was measured:
Test in all cases: holdup assay
Parameters in all cases: key: below the threshold = too weak to quantify, mostly under pKd 3.1 to 4
Conditions in all cases: plain residues with an end cap or a label only (N-terminal biotin on a linker: ado-ado)
FRMPD1, Q5SYB0 = molecular target: T1, FRMPD1, Q5SYB0
T1 sequence (Q5SYB0 52-145, limits assumed, looked up): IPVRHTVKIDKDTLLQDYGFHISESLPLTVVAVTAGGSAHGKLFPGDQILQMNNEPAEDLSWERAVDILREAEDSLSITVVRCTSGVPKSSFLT

NHERF4_1, Q86UT5-2 = molecular target: NHERF4_1, Q86UT5-2
Inadl_8, Q8NI35 = molecular target: Inadl_8, Q8NI35
FRMPD2_1, Q68DX3 = molecular target: FRMPD2_1, Q68DX3
GRIP1_4, Q9Y3R0 = molecular target: T2, GRIP1_4, Q9Y3R0
T2 sequence (Q9Y3R0 467-571, limits assumed, looked up): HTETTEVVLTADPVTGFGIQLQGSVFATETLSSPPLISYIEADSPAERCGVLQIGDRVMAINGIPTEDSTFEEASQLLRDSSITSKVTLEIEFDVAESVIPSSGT

CARD11, Q9BXL7 = molecular target: T3, CARD11, Q9BXL7
T3 sequence (Q9BXL7 662-765, limits assumed, looked up): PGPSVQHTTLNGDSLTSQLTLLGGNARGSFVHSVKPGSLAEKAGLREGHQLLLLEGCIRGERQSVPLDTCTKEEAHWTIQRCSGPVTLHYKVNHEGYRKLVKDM

Inadl_1, Q8NI35 = molecular target: Inadl_1, Q8NI35
MAGI2_5, Q86UL8 = molecular target: MAGI2_5, Q86UL8
GRID2IP_1, A4D2P6 = molecular target: GRID2IP_1, A4D2P6
Inadl_9, Q8NI35 = molecular target: Inadl_9, Q8NI35
AHNAK1, Q09666 = molecular target: AHNAK1, Q09666
HTRA4, P83105 = molecular target: T4, HTRA4, P83105
T4 sequence (P83105 378-476, limits assumed, looked up): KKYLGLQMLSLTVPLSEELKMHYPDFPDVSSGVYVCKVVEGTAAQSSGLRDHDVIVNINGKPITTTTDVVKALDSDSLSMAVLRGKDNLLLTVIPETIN

Inadl_6, Q8NI35 = molecular target: Inadl_6, Q8NI35
Inadl_3, Q8NI35 = molecular target: Inadl_3, Q8NI35
NHERF4_4, Q86UT5 = molecular target: NHERF4_4, Q86UT5
MAST2, Q6P0Q8 = molecular target: MAST2, Q6P0Q8
LNX1_3, Q8TBB1 = molecular target: LNX1_3, Q8TBB1
LNX2_3, Q8N448 = molecular target: T5, LNX2_3, Q8N448
T5 sequence (Q8N448 463-564, limits assumed, looked up): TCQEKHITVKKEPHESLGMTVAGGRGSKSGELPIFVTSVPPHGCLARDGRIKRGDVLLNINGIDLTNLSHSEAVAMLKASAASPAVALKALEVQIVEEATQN

FRMPD2_2, Q68DX3 = molecular target: FRMPD2_2, Q68DX3
PDZD2_2, O15018 = molecular target: T6, PDZD2_2, O15018
T6 sequence (O15018 329-429, limits assumed, looked up): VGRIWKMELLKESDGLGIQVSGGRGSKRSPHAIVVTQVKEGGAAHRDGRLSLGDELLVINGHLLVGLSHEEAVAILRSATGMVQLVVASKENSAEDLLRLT

LIN7B, Q9HAP6 = molecular target: T7, LIN7B, Q9HAP6
T7 sequence (Q9HAP6 88-185, limits assumed, looked up): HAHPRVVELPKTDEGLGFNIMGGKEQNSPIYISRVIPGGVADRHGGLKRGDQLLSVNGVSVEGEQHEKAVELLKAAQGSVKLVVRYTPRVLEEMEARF

ARHGAP21, Q5T5U3 = molecular target: T8, ARHGAP21, Q5T5U3
T8 sequence (Q5T5U3 45-169, limits assumed, looked up): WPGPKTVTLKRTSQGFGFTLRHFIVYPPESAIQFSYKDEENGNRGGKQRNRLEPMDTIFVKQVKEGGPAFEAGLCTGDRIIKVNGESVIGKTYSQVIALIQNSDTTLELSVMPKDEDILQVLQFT

MPP2, Q14168 = molecular target: T9, MPP2, Q14168
T9 sequence (Q14168 180-250, limits assumed, looked up): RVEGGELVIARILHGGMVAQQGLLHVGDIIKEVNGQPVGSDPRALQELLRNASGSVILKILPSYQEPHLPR

LIN7C, Q9NUP9 = molecular target: T10, LIN7C, Q9NUP9
T10 sequence (Q9NUP9 88-185, limits assumed, looked up): T7 sequence (Q9HAP6 88-185, limits assumed, looked up) with A2S, D13E, V35I, V40I, Q65H, S79K, R89K, A96S

IL16_4, Q14005 = molecular target: IL16_4, Q14005
DLG4_2, P78352 = molecular target: DLG4_2, P78352
PDZD7_3, Q9H5P4 = molecular target: T11, PDZD7_3, Q9H5P4
T11 sequence (Q9H5P4 857-944, limits assumed, looked up): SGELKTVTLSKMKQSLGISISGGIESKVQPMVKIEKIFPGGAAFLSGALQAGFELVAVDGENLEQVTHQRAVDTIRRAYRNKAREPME

Sequence of FRMPD2_2, Q68DX3 (Q68DX3 944-1038): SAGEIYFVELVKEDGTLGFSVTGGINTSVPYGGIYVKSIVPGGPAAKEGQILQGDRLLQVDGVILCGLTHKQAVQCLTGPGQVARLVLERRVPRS
Sequence of Inadl_8, Q8NI35 (Q8NI35 1425-1530): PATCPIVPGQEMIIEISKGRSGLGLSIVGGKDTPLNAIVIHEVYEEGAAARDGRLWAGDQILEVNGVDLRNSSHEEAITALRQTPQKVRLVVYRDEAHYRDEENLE
Sequence of Inadl_9, Q8NI35 (Q8NI35 1530-1615): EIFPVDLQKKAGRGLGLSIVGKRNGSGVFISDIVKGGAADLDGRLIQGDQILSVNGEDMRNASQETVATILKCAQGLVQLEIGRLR
Sequence of MAST2, Q6P0Q8 (Q6P0Q8 1099-1202): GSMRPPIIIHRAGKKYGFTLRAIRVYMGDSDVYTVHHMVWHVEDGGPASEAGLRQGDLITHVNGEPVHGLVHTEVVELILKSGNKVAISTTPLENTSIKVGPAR
Sequence of IL16_4, Q14005 (Q14005 1229-1329): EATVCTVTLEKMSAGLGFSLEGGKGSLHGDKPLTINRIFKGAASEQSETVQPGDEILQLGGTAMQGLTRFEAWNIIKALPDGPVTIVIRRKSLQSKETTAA
Sequence of AHNAK1, Q09666 (Q09666 4-100): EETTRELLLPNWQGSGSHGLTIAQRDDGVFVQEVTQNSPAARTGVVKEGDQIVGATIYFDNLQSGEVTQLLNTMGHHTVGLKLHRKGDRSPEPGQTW
Sequence of Inadl_6, Q8NI35 (Q8NI35 1058-1167): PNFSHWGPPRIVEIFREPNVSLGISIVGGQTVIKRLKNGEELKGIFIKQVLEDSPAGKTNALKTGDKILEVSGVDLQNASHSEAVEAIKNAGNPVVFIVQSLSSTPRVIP
Sequence of NHERF4_4, Q86UT5 (Q86UT5 464-550): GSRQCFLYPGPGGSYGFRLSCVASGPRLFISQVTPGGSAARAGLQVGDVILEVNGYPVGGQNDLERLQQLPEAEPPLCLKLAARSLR
Sequence of Inadl_1, Q8NI35 (Q8NI35 113-229): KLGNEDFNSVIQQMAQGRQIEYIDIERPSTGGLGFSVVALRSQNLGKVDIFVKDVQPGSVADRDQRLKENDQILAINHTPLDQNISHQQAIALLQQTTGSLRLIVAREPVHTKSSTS
Sequence of FRMPD2_1, Q68DX3 (Q68DX3 770-861): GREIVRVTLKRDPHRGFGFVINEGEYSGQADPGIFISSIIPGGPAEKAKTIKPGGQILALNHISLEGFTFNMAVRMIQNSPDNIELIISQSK
Sequence of Inadl_3, Q8NI35 (Q8NI35 359-469): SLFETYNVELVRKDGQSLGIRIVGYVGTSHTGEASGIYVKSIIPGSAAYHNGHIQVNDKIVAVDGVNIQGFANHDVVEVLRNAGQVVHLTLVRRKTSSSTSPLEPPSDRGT
Sequence of GRID2IP_1, A4D2P6 (A4D2P6 1-87): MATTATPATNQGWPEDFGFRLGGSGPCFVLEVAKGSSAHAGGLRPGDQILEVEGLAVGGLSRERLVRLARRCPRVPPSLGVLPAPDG
Sequence of MAGI2_5, Q86UL8 (Q86UL8 915-1017): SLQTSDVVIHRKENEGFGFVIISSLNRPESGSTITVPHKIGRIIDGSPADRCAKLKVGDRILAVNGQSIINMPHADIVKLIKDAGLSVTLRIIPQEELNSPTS
Sequence of LNX1_3, Q8TBB1 (Q8TBB1 500-596): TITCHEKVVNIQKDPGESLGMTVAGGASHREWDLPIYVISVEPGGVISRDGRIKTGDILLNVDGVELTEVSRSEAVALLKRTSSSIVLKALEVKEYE
Sequence of DLG4_2, P78352 (P78352 155-259): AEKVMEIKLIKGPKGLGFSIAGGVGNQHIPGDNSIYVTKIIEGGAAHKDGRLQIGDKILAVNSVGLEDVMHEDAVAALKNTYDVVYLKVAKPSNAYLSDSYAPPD
Sequence of NHERF4_1, Q86UT5-2 (Q86UT5 other isoform, or with tags, fused parts or gaps): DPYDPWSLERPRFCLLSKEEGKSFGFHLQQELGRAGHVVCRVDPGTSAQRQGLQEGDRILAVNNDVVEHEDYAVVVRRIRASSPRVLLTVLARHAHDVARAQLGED

Binder	pKd (FRMPD1, Q5SYB0)	pKd (NHERF4_1, Q86UT5-2)	pKd (Inadl_8, Q8NI35)	pKd (FRMPD2_1, Q68DX3)	pKd (GRIP1_4, Q9Y3R0)	pKd (CARD11, Q9BXL7)	pKd (Inadl_1, Q8NI35)	pKd (MAGI2_5, Q86UL8)	pKd (GRID2IP_1, A4D2P6)	pKd (Inadl_9, Q8NI35)	pKd (AHNAK1, Q09666)	pKd (HTRA4, P83105)	pKd (Inadl_6, Q8NI35)	pKd (Inadl_3, Q8NI35)	pKd (NHERF4_4, Q86UT5)	pKd (MAST2, Q6P0Q8)	pKd (LNX1_3, Q8TBB1)	pKd (LNX2_3, Q8N448)	pKd (FRMPD2_2, Q68DX3)	pKd (PDZD2_2, O15018)	also measured
AHGSTRDQSI [KCNB1, Q14721]	below the threshold	3.54	below the threshold	3.65	below the threshold	below the threshold	below the threshold	below the threshold	below the threshold	below the threshold	below the threshold	below the threshold	below the threshold	below the threshold	4.01	below the threshold	below the threshold	below the threshold	below the threshold	below the threshold	pKd (LIN7B, Q9HAP6): 3.68; pKd (ARHGAP21, Q5T5U3): below the threshold; pKd (MPP2, Q14168): below the threshold; pKd (LIN7C, Q9NUP9): below the threshold; pKd (IL16_4, Q14005): below the threshold; pKd (DLG4_2, P78352): 4.09; pKd (PDZD7_3, Q9H5P4): 3.67
PEKVSNTTVV [IGSF5, Q9NSI5]	below the threshold	below the threshold	below the threshold	below the threshold	below the threshold	below the threshold	below the threshold	3.64	below the threshold	below the threshold	below the threshold	below the threshold	below the threshold	3.48	below the threshold	4.99	below the threshold	below the threshold	below the threshold	4.06	pKd (LIN7B, Q9HAP6): 3.69; pKd (ARHGAP21, Q5T5U3): below the threshold; pKd (MPP2, Q14168): below the threshold; pKd (LIN7C, Q9NUP9): below the threshold; pKd (IL16_4, Q14005): 3.51; pKd (DLG4_2, P78352): 4.49; pKd (PDZD7_3, Q9H5P4): 4.66
EAVTVESTSL [SLC22A11, Q9NSA0]	below the threshold	4.55	below the threshold	below the threshold	below the threshold	below the threshold	below the threshold	4.45	below the threshold	below the threshold	below the threshold	below the threshold	3.94	below the threshold	below the threshold	5.9	below the threshold	below the threshold	below the threshold	4.4	pKd (LIN7B, Q9HAP6): below the threshold; pKd (ARHGAP21, Q5T5U3): 4.12; pKd (MPP2, Q14168): below the threshold; pKd (LIN7C, Q9NUP9): below the threshold; pKd (IL16_4, Q14005): below the threshold; pKd (DLG4_2, P78352): 3.58; pKd (PDZD7_3, Q9H5P4): 4.8
QQGLLPHSSC [TYRO3, Q06418]	below the threshold	3.66	4.08	below the threshold	below the threshold	below the threshold	below the threshold	below the threshold	below the threshold	below the threshold	below the threshold	below the threshold	below the threshold	below the threshold	below the threshold	3.83	below the threshold	below the threshold	below the threshold	3.55	pKd (LIN7B, Q9HAP6): below the threshold; pKd (ARHGAP21, Q5T5U3): 4; pKd (MPP2, Q14168): below the threshold; pKd (LIN7C, Q9NUP9): 3.95; pKd (IL16_4, Q14005): below the threshold; pKd (DLG4_2, P78352): below the threshold; pKd (PDZD7_3, Q9H5P4): 3.9
KSRPENGTVC [TMEM178B, H3BS89]	below the threshold	below the threshold	below the threshold	below the threshold	below the threshold	below the threshold	below the threshold	below the threshold	below the threshold	below the threshold	below the threshold	below the threshold	below the threshold	below the threshold	below the threshold	4.21	below the threshold	below the threshold	below the threshold	3.59	pKd (LIN7B, Q9HAP6): below the threshold; pKd (ARHGAP21, Q5T5U3): 4.14; pKd (MPP2, Q14168): below the threshold; pKd (LIN7C, Q9NUP9): below the threshold; pKd (IL16_4, Q14005): below the threshold; pKd (DLG4_2, P78352): below the threshold; pKd (PDZD7_3, Q9H5P4): below the threshold
